Experimental data reported in patent US20120114590A1 (priority 2005, published 2012).
Where two headings read alike, the source gives them in different places. mPEG 20 kDa propionaldehyde = 20 kD methoxy-polyethylene glycol propionaldehyde, N-terminally conjugated

Tests used:
HSV-2 = HSV-2 inhibition of cytopathic effect assay in Vero cells; format: cell-based, Herpes Simplex Virus-2; settings: CPE assay
Method: The assay involves the killing of Vero cells by the cytopathic HSV-2 virus and the inhibition of cell killing by IL-28 and EL-29. The Vero cells are propagated in Dulbecco's modified essential medium (DMEM) containing phenol red with 10% horse serum, 1% glutamine and 1% penicillin-streptomycin, while the CPE inhibition assays are performed in DMEM without phenol red with 2% FBS, 1% glutamine and 1% Pen-Strep. On the day preceding the assays, cells were trypsinized (1% trypsin-EDTA), washed, counted and plated out at 10^4 cells/well in a 96-well flat-bottom BioCoat® plates (Fisher Scientific, Pittsburgh, Pa.) in a volume of 100 μl/well. The next morning, the medium was removed and a pre-titered aliquot of virus was added to the cells. The amount of virus used is the maximum dilution that would yield complete cell killing (>80%) at the time of maximal CPE development. Cell viability is determined using a CellTiter 96® reagent (Promega) according to the manufacturer's protocol, using a Vmax plate reader (Molecular Devices, Sunnyvale, Calif.). Compounds are tested at six concentrations each, diluted in assay medium in a half-log series. Acyclovir was used as a positive control. […] The average background and drug color-corrected data for percent CPE reduction and percent cell viability at each concentration are determined relative to controls and the IC50 calculated relative to the TC50.

HCV replicon [1] = settings: IFNα at 10 IU/ml, replicon clones, compared to untreated control cell lines; cited from earlier work
Polio virus [2] = format: cell-based; settings: Vero
West Nile virus [3] = format: cell-based; settings: Vero cells, Neutral Red Assay
Vaccinia virus [4] = format: cell-based; settings: Vero
Coxsackie B4 virus [5] = format: cell-based; settings: KB cells, Neutral Red Assay
Pichinde virus [6] = format: cell-based
Parainfluenza virus [7] = format: cell-based; settings: MA-104 cells, Neutral Red Assay
West Nile virus [8] = format: cell-based; settings: Vero
Polio virus [9] = format: cell-based; settings: Vero cells, Neutral Red Assay
[10] = test system: Venezuelan equine encephalitis virus; format: cell-based; settings: Vero cells, Neutral Red Assay
Parainfluenza virus [11] = format: cell-based
[12] = test system: Influenza (type A [H3N2]); format: cell-based; settings: Maden-Darby Canine Kidney
Vaccinia virus [13] = format: cell-based; settings: Vero cells, Neutral Red Assay
Adenovirus [14] = format: cell-based; settings: A549 cells, Neutral Red Assay
Adenovirus [15] = format: cell-based
[16] = test system: Venezuelan equine encephalitis virus; format: cell-based; settings: Vero
Rhino 2 [17] = format: cell-based, rhino virus; settings: Rhino 2, KB cells, Neutral Red Assay
AML-12 cells = assay: ISG induction in the mouse liver cell line AML-12 (real-time PCR); format: cell-based; settings: AML-12, 20 ng/ml, 48 hour time point; mRNA relative to HPRT gene expression
Method: AML-12 cells were plated in 6-well plates in complete DMEM media at a concentration of 2×10^6 cells/well. […] As a control, cells were either stimulated with mouse IFNα (positive control) or unstimulated (negative). […] RNA was isolated from cell pellets using RNAEasy-kit® (Qiagen, Valencia, Calif.). RNA was treated with DNase (Millipore, Billerica, Mass.) to clean RNA of any contaminating DNA. cDNA was generated using Perkin-Elmer RT mix. ISG gene induction was evaluated by real-time PCR using primers and probes specific for mouse OAS, Pkr and Mx1. To obtain quantitative data, HPRT real-time PCR was duplexed with ISG PCR. A standard curve was obtained using known amounts of RNA from IFN-stimulated mouse PBLs. All data are shown as expression relative to internal HPRT expression.

Dengue virus [18] = format: cell-based; settings: Vero
[19] = test system: 293 HEK cells overexpressing zcytor19; assay: Inhibition of ligand-induced ISRE-luciferase signaling by soluble receptors; format: cell-based, human; settings: 10 ng/ml ligand, 10 micrograms/ml soluble receptor, 4-hour; relative to PBS alone
[20] = test system: Influenza (type A [H3N2]); format: cell-based; settings: Maden-Darby Canine Kidney cells, Neutral Red Assay
HHV-8 = HHV-8 replication in BCBL-1 cells (TaqMan PCR extracellular HHV-8 DNA; dye uptake TC50); format: cell-based, human herpesvirus-8; settings: six days
Method: The therapeutic index (TI) is calculated as TC50/IC50.

[21] = test system: Influenza (type A [H3N2]); format: cell-based; settings: Vero
[22] = test system: Influenza (type A [H3N2]); format: cell-based; settings: Vero cells, Neutral Red Assay
Rhino 9 [23] = format: cell-based, rhino virus; settings: Rhino 9, HeLa
[24] = test system: liver, spleen and blood of mice; assay: ISG gene expression (OAS, Pkr, Mx1) in liver, spleen and blood of injected C57BL/6 mice (real-time PCR); format: in vivo, mouse; settings: C57BL/6 mice, i.p or i.v, 10 μg-250 μg
Method: Mice were sacrificed at various time points (1 hr-48 hr). Spleens and livers were isolated from mice, and RNA was isolated. RNA was also isolated from the blood cells. The cells were pelleted and RNA isolated from pellets using RNAEasy®-kit (Qiagen). RNA was treated with DNase (Amicon) to rid RNA of any contaminating DNA. cDNA was generated using Perkin-Elmer RT mix (Perkin-Elmer). ISG gene induction was measured by real-time PCR using primers and probes specific for mouse OAS, Pkr and Mx1. To obtain quantitative data, HPRT real-time PCR was duplexed with ISG PCR. A standard curve was calculated using known amounts of IFN-stimulated mouse PBLs. All data are shown as expression relative to internal HPRT expression.

Pichinde virus [25] = format: cell-based; remark: listed apart in the source
[26] = test system: Respiratory syncytial virus; format: cell-based
Dengue virus [27] = format: cell-based; settings: Vero cells, Neutral Red Assay
Rhino 9 [28] = format: cell-based, rhino virus; settings: Rhino 9, HeLa cells, Neutral Red Assay
Coxsackie B4 virus [29] = format: cell-based; settings: KB
[30] = test system: Respiratory syncytial virus; format: cell-based; settings: MA-104 cells, Neutral Red Assay
Rhino 2 [31] = format: cell-based, rhino virus; settings: Rhino 2, KB
Daudi cells = assay: Daudi cell proliferation (Alamar Blue); format: cell-based, human; settings: 1000 ng/ml to 0.5 ng/ml, 72 h
Method: Human Daudi cells were suspended in RPMI+10% FBS at 50,000 cells/milliliter and 5000 cells were plated per well in a 96 well plate. […] IL-29-CEE was used at a concentration range of from 1000 ng/ml to 0.5 ng/ml. […] IFN-α2a was used at a concentration range of from 62 ng/ml to 0.03 ng/ml. Cells were incubated for 72 h at 37° C.

HCV replicon [32] = assay: HCV Replicon model in AVA5 cells, HCV RNA by dot blot hybridization assay; settings: three consecutive days of treatment

IFNα
85%: reduction of the amount of HCV RNA (HCV replicon [1])
no antiviral activity: antiviral activity against HSV-2 (HSV-2)

B1: IL-28A: human IL-28A cytokine polypeptide (zcyto20), e.g. SEQ ID NO:18; CHO-derived in Examples 16 and 18 (protein, listed as Homo sapiens)
chain: MKLDMTGDCTPVLVLMAAVLTVTGAVPVARLHGALPDARGCHIAQFKSLSPQELQAFKRAKDALEESLLLKDCRCHSRLFPRTWDLRQLQVRERPMALEAELALTLKVLEATADTDPALVDVLDQPLHTLHHILSQFRACIQPQPTAGPRTRGRLHHWLYRLQEAPKKESPGCLEASVTFNLFRLLTRDLNCVASGDLCV
modifications: SIGNAL (1)...(25)
0.01 ng/mL: EC50 Visual (West Nile virus [8])
16%: Percent Inhibition of Ligand-induced ISRE Signaling by Huzcytor19-Fc/huCRF2-4-Fc [19]
91%: Percent Inhibition of Ligand-induced ISRE Signaling by Muzcytor19-Ig [19]
0.01 µg/mL: EC50 Visual [16] | EC50 Visual (Dengue virus [18])
0.04: OAS (AML-12 cells)
0.1 µg/mL: EC50 Visual [21] | EC50 NR (Dengue virus [27])
1.726 µg/mL: EC50 NR (Rhino 9 [28])
0.06: Mx1 (AML-12 cells)
0.25 µg/mL: EC50 NR [22]
>1.672 µg/mL: EC50 NR (Polio virus [9])
>10 µg/mL: EC50 Visual (Polio virus [2]) | IC50 Visual (Polio virus [2]; numerator of SI) | IC50 NR (West Nile virus [3]) | EC50 Visual (Vaccinia virus [4]) | IC50 Visual (Vaccinia virus [4]; numerator of SI) | EC50 NR (Coxsackie B4 virus [5]) | IC50 NR (Coxsackie B4 virus [5]) | EC50 Visual (Pichinde virus [6]) | IC50 Visual (Pichinde virus [6]) | EC50 NR (Parainfluenza virus [7]) | IC50 NR (Parainfluenza virus [7]) | IC50 Visual (West Nile virus [8]; numerator of SI) | IC50 NR (Polio virus [9]) | IC50 NR [10] | EC50 Visual (Parainfluenza virus [11]; MA-104) | IC50 Visual (Parainfluenza virus [11]; MA-104, numerator of SI) | EC50 Visual [12] | IC50 Visual ([12]; numerator of SI) | EC50 NR (Vaccinia virus [13]) | IC50 NR (Vaccinia virus [13]) | EC50 NR (Adenovirus [14]) | IC50 NR (Adenovirus [14]) | EC50 Visual (Adenovirus [15]; A549) | IC50 Visual (Adenovirus [15]; A549, numerator of SI) | IC50 Visual ([16]; numerator of SI) | EC50 NR (Rhino 2 [17]) | IC50 NR (Rhino 2 [17]) | IC50 Visual (Dengue virus [18]; numerator of SI) | EC50 NR [20] | IC50 NR [20] | IC50 Visual ([21]; numerator of SI) | IC50 NR [22] | EC50 Visual (Rhino 9 [23]) | IC50 Visual (Rhino 9 [23]; numerator of SI) | EC50 NR (Pichinde virus [25]) | IC50 NR (Pichinde virus [25]) | EC50 Visual ([26]; MA-104) | IC50 Visual ([26]; MA-104, numerator of SI) | IC50 NR (Dengue virus [27]) | IC50 NR (Rhino 9 [28]) | EC50 Visual (Coxsackie B4 virus [29]) | IC50 Visual (Coxsackie B4 virus [29]; numerator of SI) | EC50 NR [30] | IC50 NR [30] | EC50 Visual (Rhino 2 [31]) | IC50 Visual (Rhino 2 [31]; numerator of SI)
0.02: PkR (AML-12 cells)
0.1 ng/mL: EC50 NR (West Nile virus [3])
92%: Percent Inhibition of Ligand-induced ISRE Signaling by Huzcytor19-Fc [19]
0.035 µg/mL: EC50 NR [10]
did not induce ISG gene expression: ISG gene expression (OAS, Pkr, Mx1) in the livers, spleen and blood of mice [24]
80%: Percent Inhibition of Ligand-induced ISRE Signaling by HuCRF2-4-Fc [19]
1 µg/mL: IC50 (extracellular HHV-8 DNA) (HHV-8)

B2: IL-29-CEE: IL-29 conjugated with glu tag (protein, UniProt Q8IU54 20-200, looked up)
Interferon lambda-1: GPVPTSKPTTTGKGCHIGRFKSLSPQELASFKKARDALEESLKLKNWSCSSPVFPGNWDLRLLQVRERPVALEAELALTLKVLEAAAGPALEDVLDQPLHTLHHILSQLQACIQPQPTAGPRPRGRLHHWLHRLQEAPKKESAGCLEASVTFNLFRLLTRDLKYVADGNLCLRTSTHPEST
modifications: Glu-Glu tag
notes: IL-29 conjugated with glu tag
no significant effect: effect on proliferation of Daudi cells (Daudi cells)

B3: PEG-rIL-29-d2-7 (conjugate)
chain: {mPEG 20 kDa propionaldehyde}-MKPTTTGKGCHIGRFKSLSPQELASFKKARDALEESLKLKNWSCSSPVFPGNWDLRLLQVRERPVALEAELALTLKVLEAAAGPALEDVLDQPLHTLHHILSQLQACIQPQPTAGPRPRGRLHHWLHRLQEAPKKESAGCLEASVTFNLFRLLTRDLKYVADGNLSLRTSTHPEST
0.000516 µg/mL: EC50 (HCV RNA, dot blot hybridization assay) (HCV replicon [32])
